Data reported in US20200040103A1.

Key:
[1] = target: recombinant human KLK5 (human) (UniProt Q9Y337); experiment: pro-KLK7 LC/MS assay, 5 nM KLK5
[2] = target: recombinant human KLK5 (human) (UniProt Q9Y337); experiment: pro-KLK7 coupled assay, 5 nM KLK5
[3] = target: recombinant human KLK5 (human) (UniProt Q9Y337); experiment: pro-KLK1 LC/MS assay, 0.5 nM KLK5
[4] = target: recombinant human KLK5 (human) (UniProt Q9Y337); experiment: Kiapp assay curve, 0.125 nM KLK5, Z-VPR-pNA
[5] = target: recombinant human KLK5 (human) (UniProt Q9Y337); experiment: Kiapp assay curve, 0.250 nM KLK5, Z-VPR-pNA
[6] = target: recombinant human KLK5 (human) (UniProt Q9Y337); experiment: Kiapp assay curve, 0.500 nM KLK5, Z-VPR-pNA
[7] = target: recombinant human KLK5 (human) (UniProt Q9Y337); experiment: Kiapp assay curve, 0.063 nM KLK5, Z-VPR-pNA
[8] = target: recombinant human KLK5 (human) (UniProt Q9Y337); experiment: pro-KLK1 coupled assay, 0.5 nM KLK5
[9] = target: recombinant human KLK5 (human) (UniProt Q9Y337); experiment: Kiapp, KLK5 0.5-0.0625 nM, Z-VPR-pNA
[10] = target: recombinant human KLK5 (human) (UniProt Q9Y337); experiment: KLK5 direct activity assay, 5 nM KLK5, Boc-VPR-AMC
[11] = target: recombinant human KLK5 (human) (UniProt Q9Y337); experiment: direct activity assay, 5 nM KLK5, Boc-VPR-AMC
[12] = target: recombinant human KLK5 (human) (UniProt Q9Y337); experiment: pro-KLK1 coupled assay, 0.5 nM KLK5, 31.25 nM pro-KLK1, PFR-AMC
[13] = target: recombinant human KLK5 (human) (UniProt Q9Y337); experiment: pro-KLK7 coupled assay, 5 nM KLK5, 125 nM pro-KLK7, suc-LLVY-AMC
[14] = target: recombinant human KLK5 (human) (UniProt Q9Y337); experiment: pro-KLK7 LC/MS assay, 5 nM KLK5, 15 nM pro-KLK7, nM
[15] = target: recombinant human KLK5 (human) (UniProt Q9Y337); experiment: array SPR imaging (IBIS MX96), antibody amine-coupled, human KLK5 injected 0-300 nM, 25 C
[16] = target: recombinant human KLK5 (human) (UniProt Q9Y337); experiment: Kiapp as the y-intercept of the line of IC50 (nM) versus KLK5 (nM), Z-VPR-pNA
[17] = target: recombinant human KLK5 (human) (UniProt Q9Y337); experiment: pro-KLK1 LC/MS assay, 0.5 nM KLK5, 300 nM pro-KLK1; box column 2 of 3; no unit printed, nM per text
[18] = target: recombinant human KLK5 (human) (UniProt Q9Y337); experiment: pro-KLK1 LC/MS assay, 0.5 nM KLK5, 300 nM pro-KLK1; box column 3 of 3; no unit printed, nM per text
[19] = target: recombinant human KLK5 (human) (UniProt Q9Y337); experiment: pro-KLK1 LC/MS assay, 0.5 nM KLK5, 300 nM pro-KLK1; box column 1 of 3; no unit printed, nM per text
[20] = target: recombinant human KLK5 (human) (UniProt Q9Y337); experiment: SPR BIAcore T200, antibody captured by anti-human Fc, human KLK5 as analyte, 37 C

recombinant human KLK5 (human), sequence (Q9Y337 67-293): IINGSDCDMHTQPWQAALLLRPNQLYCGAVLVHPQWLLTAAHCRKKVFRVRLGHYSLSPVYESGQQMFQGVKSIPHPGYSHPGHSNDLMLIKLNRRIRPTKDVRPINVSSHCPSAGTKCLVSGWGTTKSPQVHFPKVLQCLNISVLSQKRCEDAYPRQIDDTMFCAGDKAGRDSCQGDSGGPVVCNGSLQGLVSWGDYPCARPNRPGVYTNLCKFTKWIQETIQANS

Binder | IC50 [1] [nM] | IC50 [2] [nM] | IC50 [3] [nM] | IC50 [8] [nM] | Ki [9] [nM] | IC50 (read off the curve) [10] [nM] | IC50 [11] [nM] | IC50 (read off the curve) [12] [nM] | IC50 (read off the curve) [13] [nM] | IC50 [14] [nM] | koff [15] [s⁻¹] | Ki [16] [nM] | IC50 [17] [nM] | IC50 [18] [nM] | IC50 [19] [nM] | Kd [20] [nM] | koff [20] [s⁻¹] | kon [20] [M⁻¹ s⁻¹] | other results
9H3 (antibody, V domains shown) VH: QSVKESEGGLFKPTDTLTLTCTVSGFSLSGYGVSWVRQAPGKGLEYIGFIGSGGSAYYASWAKSRSTITRNTNLNTVTLKMTRLTAADTATYFCARDNVGGDMSLDIWGPGTLVTVSS VL: DIVMTQTPASVSEPVGGTVTIKCQASQNINNYLSWYQQKPGQPPKQLIYAASTLASGVPSRFKGSGSGTQFTLTISDLECADAATYYCHQDYTSNNVDNTFGGGTEVVVK | 1.05 | 1.05 | 0.09 | 0.12 | 0.07 | 0.9 | 1.08 | 0.1 | 1 | 1.05 | 0.000143 | 0.0697 | 0.0802 | 0.104 | 0.0728 |  |  |  | IC50 (read off the curve) [4]: 0.07 nM; IC50 (read off the curve) [5]: 0.1 nM; IC50 (read off the curve) [6]: 0.2 nM; IC50 (read off the curve) [7]: 0.05 nM
9B6 (antibody, V domains shown) VH: QSVKESEGGLFKPTDNLTLTCTVSGFSLSNYGVTWVRQAPGNGLEYIGFIGSGGSAYYASWAKSRSTITRNTNLNTVTLKMTSLTAADTATYFCARDDVGGGKSLDIWGPGTLVTVSS VL: NIVMTQTPASVEVAVGGTVVIKCQASQNIGDYLSWYQQKPGQRPKLLIYSASTLASGVPSRFKGSGSGTQFTLTISDLECADAATYYCHQDYTSNDVENTFGGGTEVVVK | 1.42 | 0.95 | 0.12 | 0.074 | 0.185 | 1 to 2 | 1.17 |  | 1 | 1.42 | 0.000178 | 0.165 | 0.202 | 0.0879 | 0.0659 |  |  |  | IC50 (read off the curve) [4]: 0.1 nM; IC50 (read off the curve) [5]: 0.1 nM; IC50 (read off the curve) [6]: 0.2 nM; IC50 (read off the curve) [7]: 0.1 nM
8G10 (antibody, V domains shown) VH: QSLEESGGDLVKPEGSLTLTCTASGFSFSTSYWICWVRQAPGKGLEWIACVYGLDVNIYYASWTEGRFTISKTSSTTVTLQVTSLTAADTATYFCARGGGSADFGFDLWGPGTLVTVSS VL: DVVMTQTPASVSEPVGGTVTIKCQASENIYSLLAWYQQKPGQPPKVLIYDASDLASGVPSRFKGSGSGTQFTLTISDLECADAATYYCQATAYGSSGNAFGGGTEVVVK |  |  |  |  |  |  |  |  |  |  | 0.000245 |  |  |  |  |  |  |  | 
2B11 (antibody, V domains shown) VH: QSVKESEGGLFKPTDTLTLTCTVSGFSLINYGVSWVRQAPGKGLEWIGYIGSAGSTYYATWAKSRATITRNTNLNTVTLKMTSLTAADTATYFCARAAYSAGSADAEDIWGPGTLVTVSS VL: AYYMTQTPASVEAAVGGTVTIKCQASQSISNYVAWYQQKPGQPPKLLIYRASTLASGVSSRFSGSGSGTEFTLTISDLECADAATYYCHQGYSSSNVDNIFGGGTEVVVK | 1.72 | 0.86 | 0.48 | 0.17 | 6.35 | 1 to 2 | 1.29 | 0.2 |  | 1.72 | 0.000574 | 6.36 | 0.584 |  | 0.369 |  |  |  | 
2-3F4 (antibody, V domains shown) VH: QSVEESRGGLIKPTDTLTLTCTASGFSLSNYGVSWVRQAPGNGLEYIGFIGYGGSTYYASWAKSRSTITRNTNLNTVTLQMTSLTAADTATYFCARLCGVDCADALDSWGPGTLVTVSS VL: AYYMTQTPASVEVAVGGTVTIKCQASEDIGSYCSWYQQKPGQPPKLLIYDASDLASGVPSRFKGSGSGTDFTLTISGVQCDDAATYYCQQDYTGNNVDNTFGGGSEVVVK | 0.38 | 1.1 | 0.09 | 0.129 | 1.14 | 1 | 1.02 | 0.1 | 1 | 0.384 | 0.000184 | 0.939 | 0.173 | 0.0279 | 0.054 |  |  |  | 
8F5 (antibody, V domains shown) VH: QSVKESEGGLFKPTDTLTLTCTVSGFSLSSYPISWVRQAPGNGLEWIGYITSEYGVAYYATWAESRSTITRNTNLNTVTLKMTSLTAADTATYFCVRENPTYGYAYDAWGPGTLVTVSS VL: AYDLTQTPASVEAAVGGTVTINCQASESIGNELSWYQQKSGQPPKLLIYQASTLASGVPSRFKGSGSGTDFTLTISDLECADAATYYCAQGFSSSGVENVFGGGTEVVVK | 1.31 | 0.76 | 0.16 | 0.149 | 1.91 | 1 | 1.15 | 0.1 to 0.2 | 0.8 | 1.31 | 0.000316 | 1.85 | 0.16 | 0.241 | 0.069 |  |  |  | 

More lines, main results first:

IC50 [1] [nM] | IC50 [2] [nM] | IC50 [3] [nM] | IC50 [8] [nM] | Ki [9] [nM] | IC50 (read off the curve) [10] [nM] | IC50 [11] [nM] | IC50 (read off the curve) [12] [nM] | IC50 (read off the curve) [13] [nM] | IC50 [14] [nM] | koff [15] [s⁻¹] | Ki [16] [nM] | IC50 [17] [nM] | IC50 [18] [nM] | IC50 [19] [nM] | Kd [20] [nM] | koff [20] [s⁻¹] | kon [20] [M⁻¹ s⁻¹] | Binder | other results
 |  |  |  |  |  |  |  |  |  |  |  |  |  |  | 0.057 | 0.00108 | 1.9e+07 | hu10C5.L5H28 (antibody, V domains shown) VH: EVQLVESGGGLVQPGGSLRLSCAASGFSLSSYGVTWVRQAPGKGLEWIGYITSNYGVSYYASWAKSRSTISRDTSKNTVYLQMGSLRAEDMAVYYCARENPDYGYAYDAWGQGTTVTVSS VL: AIRMTQSPSSFSASTGDRVTITCQASESISNELSWYQQKPGKAPKLLIYYASTLASGVPSRFSGSGSGTDFTLTISSLQPEDFATYYCAQGFGSSGVENVFGGGTKVEIK | 
 |  |  |  |  |  |  |  |  |  |  |  |  |  |  | 0.00414 | 0.000201 | 4.84e+07 | hu3-3F5.L5H19 (antibody, V domains shown) VH: EVQLLESGGGLVQPGGSLRLSCAVSGFSLNDYGVSWVRQAPGKGLEWVGAIGSSGVAWYANFAKGRFTISRDNSKNTLYLQMNSLRAEDTAVYYCARDRDYGYRADDATSGMDLWGRGTLVTVSS VL: AIRMTQSPSSFSASTGDRVTITCQASESIGNALAWYQQKPGKAPKLLIYDASDLASGVPSRFSGSGSGTDFTLTISSLQPEDFATYYCQQGDSHNNVDNIFGGGTKVEIK | 
 |  |  |  |  |  |  |  |  |  |  |  |  |  |  | 0.00914 | 0.000235 | 2.57e+07 | hu3-3F5.L5H25 (antibody, human IgG1, V domains shown) VH: EVQLLESGGGLVQPGGSLRLSCAASGFSLNDYGVSWVRQAPGKGLEWVGAIGSSGVAWYANFAKGRFTISRDTSKNTVYLQMNSLRAEDTAVYYCARDRDYGYRADDATSGMDLWGRGTLVTVSS VL: AIRMTQSPSSFSASTGDRVTITCQASESIGNALAWYQQKPGKAPKLLIYDASDLASGVPSRFSGSGSGTDFTLTISSLQPEDFATYYCQQGDSHNNVDNIFGGGTKVEIK | 
 |  |  |  |  |  |  |  |  |  |  |  |  |  |  | 0.694 | 0.000562 | 810000 | hu9H5.L4H14 (antibody, V domains shown) VH: EVQLVESGGGLIQPGGSLRLSCAASGFSLSSYGVSWVRQAPGKGLEYVGFIGSGGFAYYASWAKSRFTISRDNSKNTLYLQMNSLRAEDTAVYYCARDDVGGGKSLDIWGQGTLVTVSS VL: DIQMTQSPSSLSASVGDRVTITCQASQSISSYLSWYQQKPGKAPKLLIYSASTLASGVPSRFSGSGSGTDFTLTISSLQPEDFATYYCHQDYTSSNVDNTFGGGTKVEIK | 
0.31 | 0.58 | 0.08 | 0.111 | 0.15 | 1 | 0.98 | 0.1 |  | 0.311 | 0.000126 | 0.0412 | 0.123 | 0.0795 | 0.0399 | 0.0165 | 0.000292 | 1.78e+07 | 10C5 (antibody, V domains shown) VH: QSLEESGGGLVKPTDTLTLTCTVSGFSLSSYGVTWVRQAPGRGLEWIGYITSNYGVSYYASWAKSRSTITRNTNLNTVTLKMTSLTAADTATYFCARENPDYGYAYDAWGPGTLVTVSV VL: AYDMTQTPASLEAAVGGTVTINCQASESISNELSWYQQKPGQPPDLLIYYASTLASGVPSRFKGSGSGTEFTLTISDLECADAATYYCAQGFGSSGVENVFGGGTEVVVK | 
